From publication PMC8402574

Molecular target: NG19 (Non-Glycosylated protein of 19 kDa, S371 to F541 of the SARS-CoV-2 Spike protein RBD) (SARS-CoV-2) (UniProt P0DTC2)
Experiment: Tricine-SDS-PAGE under non-reducing conditions

NG19 (Non-Glycosylated protein of 19 kDa, S371 to F541 of the SARS-CoV-2 Spike protein RBD) (from UniProt P0DTC2 371-541) (domain or fragment)
stoichiometry N: 2
